Tests used:
[1] = biological target: T1, Human red blood cell proteasomes (Homo sapiens, UniProt P28072+P28074+Q99436); assay: Activation of fluorogenic peptide hydrolysis by the proteasome in the presence of REG variants; type: biochemical; conditions: for Stimulation of cleavage (x-fold) LLE: substrate LLE-βNA (PGPH site); for Stimulation of cleavage (x-fold) LLVY: substrate LLVY-MCA (chymotrypsin-like site); for Stimulation of cleavage (x-fold) LRR: substrate LRR-MCA (trypsin-like site); for Stimulation of hydrolysis of LLVY-MCA and LLE-βNA: summary of Table 1
T1 construct: Human red blood cell proteasomes; from tissue; host or cells: human red blood cells
Procedure: Human red blood cell proteasomes (170 ng) were mixed with increasing amounts of purified REG variants. The reactions were started by adding 50 μl of 200 μMscu-LLVY-MCA, Boc-LRR-MCA, or Boc-LLE-βNA in 10 mM Tris, pH 7.5. After a 10 min incubation, the reaction was quenched with 200μl of cold 100% ethanol, and the released MCA or βNA ws measured fluometrically. Each data point represents the mean of three measurements from a single experiment. […] REGα (▪), REGγ(□), REGγ(K188E) or REGγ(K188D) (●), REGγ(K188H) (∘), REGγ(K188Q) or REGγ(K188N) (Δ), REGγ(K188A) (♦). The data for REGγ(K188E) and REGγ(K188D) and for REGγ(K188Q) and REGγ(K188N) were combined since their activities were indistinguishable.
Because each positive variant identified in the previous example included a mutation at Lys188, site-directed mutagenesis was used to generate a series of amino acid substitutions at this residue. Twelve mutants were constructed in which Lys188 of REGγ was changed to Ala, Arg, Asn, Asp, Cys, Gln, Glu, His, Ile, Phe, Pro, or Ser. Wild-type REGγ and the Lys 188 variants were expressed in E. coli, purified, and the activation specificity of each protein was measured using the diagnostic peptides LLVY (SEQ ID NO:1)-MCA, LRR-MCA, and LLE-βNA. Except for the K188R variant, all Lys 188 mutants stimulated the hydrolysis of LRR-MCA by the proteasome to the same extent or slightly better than wild-type REGγ. Substitution of negatively-charged Glu or Asp for the positively-charged Lys188 produced mutants with activation properties almost identical to REGα.
To determine the degree to which the activation specificity of REGγ(K188E/D) variants matches that of REGα, proteasomal cleavage of a series of fluorogenic peptides was measured in the presence of each activator.

[2] = Heptamer stability on rechromatography (Superdex 200 size exclusion column); type: physicochemical; conditions: for Percentage that remained heptamers on rechromatography: Superdex 200 second gel filtration; for Percent heptamer: after second gel filtration
From the text: To examine the effect of Lys188 substitution on REGγ heptamer stability, the wildtype and Lys 188 variant heptamers were rechromatographed on the Superdex 200 (26/60) size exclusion column used for purification. […] Replacement of Lys 188 by Pro or Phe severely affected the stability of REGγ heptamer.

[3] = biological target: proteasome (Homo sapiens, UniProt P28072+P28074+Q99436); assay: REGα(N146Y)/REGβ(N135Y) competition assay for relative proteasome affinity; type: binding; conditions: in terms of REGα(N146Y)/REGβ(N135Y) competition; wild-type REGγ 100
From the text: As a measure of the relative affinities of REGγ and the REGγLys188 mutants for the proteasome, a competition assay was used. See Li et al. (2000), The Proteasome Activator 11S REG or PA28: Chimeras Implicate Carboxyl-Terminal Sequences in Oligomerization and Proteasome Binding But Not in the Activation of Specific Proteasome Catalytic Subunits. J. Mol. Biol. 299:641-54. All REGγLys188 mutants were relatively resistant to REGα(N146Y)/REGβ(N135Y) competition with apparent proteasome affinities varying from 40% to 90% that of wild-type REGγ.

[4] = biological target: proteasomes (Homo sapiens, UniProt P28072+P28074+Q99436); assay: Proteasomal degradation of fluorescein-labeled polyQ peptides (molecular exclusion chromatography); type: biochemical; conditions: proteasome + activator, 5 hr incubation
Procedure: The following peptides were synthesized using routine peptide synthesis:
Each peptide was incubated for 5 hr with proteasomes alone, proteasomes+REGγ, proteasome+REGγ(K188E) or proteasomes+REGα/β. Degradation was assayed by molecular exclusion chromatography using fluorescein as a signal (see FIG. 2). The degradation products were identified by HPLC-MS (FIG. 3). […] By contrast, in the presence of REGγ(K188E) the various polyQ peptides were degraded 5 to 10-fold faster.

Substance	Stimulation of cleavage (x-fold) LLE [1] [x-fold]	Stimulation of cleavage (x-fold) LLVY [1] [x-fold]	Stimulation of cleavage (x-fold) LRR [1] [x-fold]	Percentage that remained heptamers on rechromatography [2]	Percent heptamer [2]	Relative affinity for proteasome [3]	Stimulation of hydrolysis of LLVY-MCA and LLE-βNA [1] [fold]	Heptamers dissociated during the second gel filtration ([2]; Superdex 200)	% Degraded, substrate F1-EPQPQ [4] [%]	% Degraded, substrate F1-KSQPQ [4] [%]	% Degraded, substrate F1-QHQ [4] [%]	% Degraded, substrate F1-QPQ [4] [%]	% Degraded, substrate F1-QQQ [4] [%]
γK188H: mutant REGγ in which Lys188 was changed to His	4	5	14	remained fully heptameric	>95%	50							
γKl88C: mutant REGγ in which Lys188 was changed to Cys	5	6	13		70%	60	6						
γK188I: mutant REGγ in which Lys188 was changed to Ile	3	2	12	remained fully heptameric	>95%	60	2						
γK188R: mutant REGγ in which Lys188 was changed to Arg	0.7	0.7	10	remained fully heptameric	>95%	75							
γK188F: mutant REGγ in which Lys188 was changed to Phe	4	4	13	remained monomers or dimers	Dimer	40							
γK188P: mutant REGγ in which Lys188 was changed to Pro	1	1	12		50%	40		About 50%					
γK188Q: mutant REGγ in which Lys188 was changed to Gln	5	5	14		80%	75							
γK188A: mutant REGγ in which Lys188 was changed to Ala	6	6	13		60%	60	6						
γKI88S: mutant REGγ in which Lys188 was changed to Ser	3	3	14	remained fully heptameric	>95%	50							
REGα/β: REGα/β hetero-heptamer proteasome activator									55	85	80	85	85

From patent US20040233833A1, “Methods for identifying compounds with thrapeutic potential for treatment of central Neurodegenerative diseases resulting from abnormal protein or peptide accumulation” (priority 2001, published 2004)
